This experiment deals with integrin α5β1 ectodomain (α5 F1–Y954/β1 Q1–D708) (UniProt P08648;P05556). Briefly: fluorescence polarisation.

The values that follow come from publication PMC9483561 (The Journal of Biological Chemistry, 2022).

Chain of integrin α5β1 ectodomain (α5 F1–Y954/β1 Q1–D708) (P08648 42-995, chain 1 of 2): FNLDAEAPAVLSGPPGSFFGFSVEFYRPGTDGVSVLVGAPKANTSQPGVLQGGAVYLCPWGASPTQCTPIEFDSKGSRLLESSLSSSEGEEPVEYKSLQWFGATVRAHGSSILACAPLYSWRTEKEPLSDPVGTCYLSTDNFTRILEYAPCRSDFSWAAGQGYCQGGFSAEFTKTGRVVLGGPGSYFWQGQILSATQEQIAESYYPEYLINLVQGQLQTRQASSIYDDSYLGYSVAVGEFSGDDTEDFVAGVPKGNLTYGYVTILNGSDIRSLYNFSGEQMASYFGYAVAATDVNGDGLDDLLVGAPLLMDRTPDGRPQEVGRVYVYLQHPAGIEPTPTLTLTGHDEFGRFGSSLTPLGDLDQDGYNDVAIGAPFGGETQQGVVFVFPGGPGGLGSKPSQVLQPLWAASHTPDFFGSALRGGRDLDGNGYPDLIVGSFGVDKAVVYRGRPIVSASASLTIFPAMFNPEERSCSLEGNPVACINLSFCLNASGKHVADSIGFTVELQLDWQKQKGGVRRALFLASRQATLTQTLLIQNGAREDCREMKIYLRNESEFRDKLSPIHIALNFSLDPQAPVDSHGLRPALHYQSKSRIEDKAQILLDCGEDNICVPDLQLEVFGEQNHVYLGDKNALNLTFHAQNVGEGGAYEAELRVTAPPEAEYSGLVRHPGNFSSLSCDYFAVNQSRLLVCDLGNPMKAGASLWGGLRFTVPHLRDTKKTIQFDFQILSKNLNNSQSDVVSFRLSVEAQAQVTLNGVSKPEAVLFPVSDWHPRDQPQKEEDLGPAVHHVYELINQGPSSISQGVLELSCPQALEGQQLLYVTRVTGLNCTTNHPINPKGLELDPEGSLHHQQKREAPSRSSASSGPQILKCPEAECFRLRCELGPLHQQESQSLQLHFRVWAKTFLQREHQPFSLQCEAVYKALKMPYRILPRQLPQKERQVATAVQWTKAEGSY
Chain of integrin α5β1 ectodomain (α5 F1–Y954/β1 Q1–D708) (P05556 21-728, chain 2 of 2): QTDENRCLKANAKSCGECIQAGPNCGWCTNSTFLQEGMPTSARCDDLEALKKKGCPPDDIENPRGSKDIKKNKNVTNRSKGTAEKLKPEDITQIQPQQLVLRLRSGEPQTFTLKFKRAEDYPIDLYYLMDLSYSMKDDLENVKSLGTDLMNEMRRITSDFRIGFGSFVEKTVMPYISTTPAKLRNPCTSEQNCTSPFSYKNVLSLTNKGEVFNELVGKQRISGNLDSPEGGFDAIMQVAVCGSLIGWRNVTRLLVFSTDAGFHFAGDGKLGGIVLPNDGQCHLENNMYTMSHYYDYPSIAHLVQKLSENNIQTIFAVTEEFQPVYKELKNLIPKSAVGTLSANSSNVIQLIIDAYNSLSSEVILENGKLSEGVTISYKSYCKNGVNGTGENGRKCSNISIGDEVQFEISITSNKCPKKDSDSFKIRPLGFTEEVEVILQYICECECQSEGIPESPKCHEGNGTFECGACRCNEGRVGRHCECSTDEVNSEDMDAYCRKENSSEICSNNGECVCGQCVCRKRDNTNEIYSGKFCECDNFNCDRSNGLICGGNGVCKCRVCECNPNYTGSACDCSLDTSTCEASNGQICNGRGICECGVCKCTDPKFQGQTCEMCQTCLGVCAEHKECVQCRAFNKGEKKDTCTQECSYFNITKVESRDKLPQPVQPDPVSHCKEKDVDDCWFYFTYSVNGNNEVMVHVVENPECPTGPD

B1: fibronectin fragment Fn10 (V1416–T1509) (domain or fragment)
chain: not shown
As for B1, the binding result is “binds”.
